Results from paper PMC2908543, “Uropathogenic Escherichia coli Modulates Immune Responses and Its Curli Fimbriae Interact with the Antimicrobial Peptide LL-37” (PLoS Pathogens, 2010).

Assays:
[1] = biological target: recombinant CsgA-His6 (E. coli) (UniProt P28307); assay: thioflavin T fluorescence quantified by confocal microscopy; monomeric CsgA with equimolar LL-37, sLL-37 or VIP and 20 µM ThT, over night at 37°C, washed; fluorescence relative to CsgA alone
[2] = biological target: recombinant CsgA-His6 (E. coli) (UniProt P28307)

In the case of human antimicrobial peptide LL-37, the ThT fluorescence of CsgA with the peptide at 1:1, relative to CsgA alone (1 arbitrary unit) (arbitrary units) [1] is reported as 0.05 and the curli-mediated biofilm formation of E. coli in microtiter plates (crystal violet), reduction by 2.5 µM LL-37; the pair blocked is CsgA with CsgA (polymerization) [2] is reported as greater than 80%.
